Residue numbers refer to the chain shown, from its start.
B1: Eml1 pS108 (protein, UniProt Q4V8C3 1-814, looked up)
Echinoderm …: MEDGFSSYSSLYDTSSLLQFCNDDSASAASSMEISDRIASLEQRVQMQEDDIQLLKSALADVVRRLNITEEQQAVLNRKGPTKARPLGQTLPLRTTVNNGTVLPKKPSASLPSPSGSRKEMVVPVTKSINRTSSSERVSPGGRRESSGDSKGSRNRTGSTSSSSSGKKNSESKPKEPTFSPEEGYVKMFLRGRPVTMYMPKDQVDSYSLEAKAELPTKRLKLEWVYGYRGRDCRNNLYLLPTGETVYFIASVVVLYNVEEQLQRHYAGHNDDVKCLAVHPDRITIATGQVAGTSKDGKQLPPHVRIWDSVTLNTLHVIGIGFFDRAVTCIAFSKSNGGSHLCAVDDSNDHVLSVWDWQREERLADVKCSNEAVFAADFHPTDTNIIVTCGKSHLYFWTLEGNSLNKKQGLFEKQEKPKFVLCVTFSENGDTITGDSSGNILVWGKGTNRISYAVQGAHEGGIFALCMLRDGTLVSGGGKDRRLISWNGNYQKLHKAEIPEQFGPIRTVAEGKGNVILIGTTRNFVLQGTLTGDFTPITQGHTDELWGLAIHASKPQFLTCGHDKHATLWDAVGHRPVWDKIIEDPAQSSGFHPSGSVVAVGTLTGRWFVFDTETKDLVTVHTDGNEQLSVMRYSPDGNFLAIGSHDNCIYIYGVSDNGRKYTRVGKCSGHSSFITHLDWSVNSQFLVSNSGDYEILYWVPSACKQVVSVETTRDIEWATYTCTLGFHVFGVWPEGSDGTDINAVCRAHEKKLLSTGDDFGKVHLFSYPCSQFRAPSHIYSGHSSHVTNVDFLCEDSHLISTGGKDTSIMQWRVI
modifications: phosphorylated at S108
B2: Atp5a1 pS184 (protein, UniProt P15999 44-553, looked up)
ATP synthase F(1) complex …: QKTGTAEMSSILEERILGADTSVDLEETGRVLSIGDGIARVHGLRNVQAEEMVEFSSGLKGMSLNLEPDNVGVVVFGNDKLIKEGDIVKRTGAIVDVPVGDELLGRVVDALGNAIDGKGPVGSKIRRRVGLKAPGIIPRISVREPMQTGIKAVDSLVPIGRGQRELIIGDRQTGKTSIAIDTIINQKRFNDGTDEKKKLYCIYVAIGQKRSTVAQLVKRLTDADAMKYTIVVSATASDAAPLQYLAPYSGCSMGEYFRDNGKHALIIYDDLSKQAVAYRQMSLLLRRPPGREAYPGDVFYLHSRLLERAAKMNDSFGGGSLTALPVIETQAGDVSAYIPTNVISITDGQIFLETELFYKGIRPAINVGLSVSRVGSAAQTRAMKQVAGTMKLELAQYREVAAFAQFGSDLDAATQQLLSRGVRLTELLKQGQYSPMAIEEQVAVIYAGVRGYLDKLEPSKITKFESAFLSHVVSQHQSLLGNIRSDGKISEQSDAKLKEIVTNFLAGFEP
modifications: phosphorylated at S184
B3: Atp5a1 pS76 (protein, UniProt P15999 44-553, looked up)
ATP synthase F(1) complex …: B2 ATP synthase F(1) complex …
modifications: phosphorylated at S76
B4: Crip2 pS114 (protein, UniProt P36201 1-208, looked up)
Cysteine-rich protein 2: MASKCPKCDKTVYFAEKVSSLGKDWHKFCLKCERCNKTLTPGGHAEHDGKPFCHKPCYATLFGPKGVNIGGAGSYIYEKPPTEAPQVTGPIEVPVVRTEERKTSGPPKGPSKASSVTTFTGEPNMCPRCNKRVYFAEKVTSLGKDWHRPCLRCERCSKTLTPGGHAEHDGQPYCHKPCYGILFGPKGVNTGAVGSYIYDKDPEGTVQP
modifications: phosphorylated at S114
B5: Crip2 pS19 (protein, UniProt P36201 1-208, looked up)
Cysteine-rich protein 2: B4 Cysteine-rich protein 2
modifications: phosphorylated at S19
B6: Fhl2 pS255 (protein, UniProt O70433 1-279, looked up)
Four and a half LIM domains …: MTERFDCHHCNESLYGKKYILKEENPHCVACFEELYANTCEECGTPIGCDCKDLSYKDRHWHEGCFHCSRCGSSLVDKPFAAKEEQLLCTDCYSNEYSSKCQECKKTIMPGTRKMEYKGSSWHETCFTCQRCQQPIGTKSFIPKENQNFCVPCYEKQYALQCVQCKKPITTGGVTYREQPWHKECFVCTACKKQLSGQRFTARDEFPYCLTCFCDLYAKKCAGCTNPISGLGGTKYISFEERQWHNDCFNCKKCSLSLVGRGFLTERDDILCPDCGKDI
modifications: phosphorylated S255
B7: Dync1li1 pT408 (protein, UniProt Q9QXU8 1-523, looked up)
Cytoplasmic dynein 1 light …: MAAVGRVGSFGSSPPGLASTYASGPLANELASGSGGPAAGDDEDGQNLWSRILREVSTRSRSKLPTGKNVLLLGEDGAGKTSLIRRIQGIEEYKKGRGLEYLYLNVHDEDRDDQTRCNVWILDGDLYHKGLLKFSLDALSLRDTLVMLVVDMSKPWTALDSLQKWASVVREHVDKLKIPPEEMKEMEQKLIRDFQEYVEPGEDFPASPQRRATAAQEDRDDSVVLPLGADTLTHNLGLPVLVVCTKCDAISVLEKEHDYRDEHFDFIQSHIRKFCLQYGAALIYTSVKENKNIDLVYKYIVQKLYGFPYKIPAVVVEKDAVFIPAGWDNDKKIGILHENFQTLKIEDNFEDIITKPPVRKFVHEKEIMAEDDQVFLMKLQSLLAKQPPTAAGRPVDASPRVPGGSPRTPNRSVSSNVASVSPIPAGSKKIDPNMKAGATSEGVLANFFNSLLSKKTGSPGGPGVGGSPGGGAAGASTSLPPSAKKSGQKPVLSDVHAELDRITRKPASVSPTTPPSPTEGEAS
modifications: phosphorylated at T408
B8: Dync1li1 pS412 (protein, UniProt Q8R1Q8 1-523, looked up)
Cytoplasmic dynein 1 light …: B7 Cytoplasmic dynein 1 light … with R51C, R54S, A212T, A214G, D220G, I345V, T477P, P515T
modifications: phosphorylated S412
B9: Clasp2 pS436 (protein, UniProt Q99JD4 1-1286, looked up)
CLIP-associating protein 2: MRRLICKRICDYKSFDDEESVDGNRPSSAASAFKVPAPKTPGNPVNSARKPGSAGGPKAGGTSKEGGAGAVDEDDFIKAFTDVPSIQIYSSRELEETLNKIREILSDDKHDWDQRANALKKIRSLLVAGAAQYDCFFQHLRLLDGALKLSAKDLRSQVVREACITVAHLSTVLGNKFDHGAEAIVPTLFNLVPNSAKVMATSGCAAIRFIIRHTHVPRLIPLITSNCTSKSVPVRRRSFEFLDLLLQEWQTHSLERHAAVLVETIKKGIHDADAEARVEARKTYMGLRNHFPGEAETLYNSLEPSYQKSLQTYLKSSGSVASLPQSDRSSSSSQESLNRPFSSKWSTANPSAVAGRVSVGGSKASPLPGSLQRSRSDIDVNAAAGAKAHHAAGQAVRSGRLGAGALNPGSYASLEDTSDKMDGTASEDGRVRAKLSTPLVAVGNAKTDSRGRSRTKMVSQSQPGSRSGSPGRVLTTTALSTVSSGAQRILVNSASAQKRSKIPRSQGCSREASPSRLSVARSSRIPRPSVSQGCSREASRESSRDTSPVRSFQPLGPGYGMSQSSRLSSSVSAMRVLNTGSDVEEAVADALLLGDIRTKKKPARRRYESYGMHSDDDANSDASSACSERSYSSRNGSIPTYMRQTEDVAEVLNRCASSNWSERKEGLLGLQNLLKNQRTLSRVELKRLCEIFTRMFADPHGKVFSMFLETLVDFIQVHKDDLQDWLFVLLTQLLKKMGADLLGSVQAKVQKALDVTRESFPNDLQFNILMRFTVDQTQTPSLKVKVAILKYIETLAKQMDPGDFINSSETRLAVSRVITWTTEPKSSDVRKAAQSVLISLFELNTPEFTMLLGALPKTFQDGATKLLHNHLRNTGNGTQSSMGSPLTRPTPRSPANWSSPLTSPTNTSQNTLSPSAFDYDTENMNSEDIYSSLRGVTEAIQNFSFRSQEDMSEPLKRDPKKEDGDTVCSGPGMSDPRAGGDAPDSSQPALDNKASLLHSVPLHSSPRSRDYNPYNYSDSISPFNKSALKEAMFDDDADQFPDDLSLDHSDLVAELLKELSNHNERIEERKIALYELMKLTQEESFSVWDEHFKTILLLLLETLGDKEPTIRALALKVLKEILRHQPARFKNYAELTVMKTLEAHKDPHKEVVRSAEEAASVLATSISPEQCIKVLCPIIQTADYPINLAAIKMQTKVIERVSKETLNLLLPEIMPGLIQGYDNSESSVRKACVFCLVAVHAVIGDELKPHLSQLTGSKMKLLNLYIKRAQTGSAGADPTTDVSGQS
modifications: phosphorylated at S436
B10: Gpsm1 pS567 (protein, UniProt Q9R080 1-673, looked up)
G-protein-signaling modulator …: MASPAPPAAEELPGPAARRLYSRMEASCLELALEGERLCKAGDFKAGVAFFEAAVQVGTEDLKTLSAIYSQLGNAYFYLKEYARALQFHKHDLLLARTIGDRMGEAKASGNLGNTLKVLGRFDEAIVCCQRHLDIAQEQGDKVGEARALYNIGNVYHAKGKQLSWNAAQDPGHLPPDVRETLHRASEFYERNLSLVKELGDRAAQGRAYGNLGNTHYLLGNFTEATTFHKERLAIAKEFGDKAAERRAYSNLGNAHIFLGRFDVAAEHYKKTLQLSRQIRDQAVEAQACYSLGNTYTLLQDYERAAEYHLRHLVIAQELADRVGEGRACWSLGNAYVSMGSPAQALTFAKKHLQISQEIGDRNGELTARMNIAHLQLALGRLTSPAAAEKPDLAGYEAQGARPKRTQRLSAETWDLLRLPLDREQNGETHHTGDWRGPSRDSLPLPMRSRKYQEGPDAIERRPREGSHSPLDSADVRVQVPRTGIPRAPSSDEECFFDLLSKFQSSRMDDQRCPLEEGQAGAAEATAAPTLEERAAQPSVTASPQTEEFFDLIASSQSRRLDDQRASVGSLPGLRITLNNVGHLRGDGDPQEPGDEFFNMLIKYQSSRIDDQRCPPPDVLPRGPTMPDEDFFSLIQRVQAKRMDEQRVDLAGSPDQEASGLPDPRQQCPPGAS
modifications: phosphorylated at S567
B11: Lrpap1 pS245 (protein, UniProt Q99068 34-360, looked up)
Alpha-2-macroglobulin …: HGGKYSREKNEPEMAAKRESGEEFRMEKLNQLWEKAKRLHLSPVRLAELHSDLKIQERDELNWKKLKVEGLDGDGEKEAKLVHNLNVILARYGLDGRKDTQTVHSNALNEDTQDELGDPRLEKLWHKAKTSGKFSSEELDKLWREFLHYKEKIHEYNVLLDTLSRAEEGYENLLSPSDMTHIKSDTLASKHSELKDRLRSINQGLDRLRKVSHQGYGPATEFEEPRVIDLWDLAQSANFTEKELESFREELKHFEAKIEKHNHYQKQLEISHQKLKHVESIGDPEHISRNKEKYVLLEEKTKELGYKVKKHLQDLSSRVSRARHNEL
modifications: phosphorylated at S245

test system: PKGIα (analogue-sensitive M438G), disulfide-activated; assay: Chemical genetic phosphoproteomic screen, disulfide-activated PKGIα M438G versus unactivated control; format: biochemical, human PKGIα; substrates in rat heart homogenate; conditions: control = PKGIα C42S/M438G
Method in brief: (§1)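 Analogue-sensitive human PKGIα mutants (M438G, air-oxidized to disulfide dimer; C42S/M438G, cGMP-activated), expressed in 293-F cells, thiophosphorylate substrates in rat left-ventricle lysate (20 mg ml) using N6-alkylated ATPγS. Thiophosphopeptides are recovered by covalent capture and identified with sites by LC–MS/MS, each compared against an unactivated control.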

| Molecule | log2 fold change Disulfide vs Control |
| --- | --- |
| B1 | 1.496 |
| B2 | 1.986 |
| B3 | 1.372 |
| B4 | 1.062 |
| B5 | 1.661 |
| B6 | 1.662 |
| B7 | 1.949 |
| B8 | 1.658 |
| B9 | 0.8616 |
| B10 | 1.042 |
| B11 | 0.3181 |

test system: PKGIα (analogue-sensitive C42S/M438G), cGMP-activated; assay: Chemical genetic phosphoproteomic screen, cGMP-activated PKGIα C42S/M438G versus unactivated control; format: biochemical, human PKGIα; substrates in rat heart homogenate; conditions: control = PKGIα C42S/M438G
Method in brief: as §1

| Molecule | log2 fold change cGMP vs Control |
| --- | --- |
| B1 | 3.948 |
| B2 | 3.438 |
| B3 | 2.023 |
| B4 | 3.456 |
| B5 | 2.804 |
| B6 | 3.732 |
| B7 | 3.758 |
| B8 | 4.149 |
| B9 | 1.792 |
| B10 | 2.926 |
| B11 | 2.6435 |
